B1: p53 187-197 … (peptide)
peptide: GLAPPQHLIRV
B2: p53 65-73 … (peptide)
peptide: RMPEAAPPV
B3: p53 113-122 … (peptide)
peptide: FLHSGTAKSV
B4: p53 196-205 … (peptide)
peptide: RVEGNLRVEY
B5: p53 154-163 … (peptide)
peptide: GTRVRAMAIY
B6: p53 112-120 … (peptide)
peptide: GFLHSGTAK
B7: p53 172-181 … (peptide)
peptide: VVRRCPHHER
B8: p53 373-381 … (peptide)
peptide: KGQSTSRHK
B9: p53 363-372 … (peptide)
peptide: RAHSSHLKSK
B10: p53 122-132 … (peptide)
peptide: VTCTYSPALNK
B11: p53 113-120 FLHSGTAK (peptide)
peptide: FLHSGTAK
B12: p53 283-291 … (peptide)
peptide: RTEEENLRK
B13: p53 363-370 RAHSSHLK (peptide)
peptide: RAHSSHLK

These binders were tested against HLA-A*0201 (human) (assay: HLA-A*0201 peptide stabilization assay; unstable if >50% of complexes lost within 2 h). Details: remark: other sources report otherwise.

| Binder | Stability [h] |
| --- | --- |
| B1 | 6 |
| B2 | 6 |
| B3 | 6 |

Each binder was assayed against HLA-A*0101 (human) (assay: cellular competition assay vs FL-labelled reference peptide on B cells; affinity category (high/good IC50<5 uM, intermediate 5-15 uM, low >15-50 uM)). Details: remark: other sources report otherwise.

| Binder | IC50 [µM] |
| --- | --- |
| B4 | 5 to 15 |

These binders were tested against HLA-A*0301 (human) in the same assay as above. Details: remark: other sources report otherwise.

| Binder | IC50 [µM] |
| --- | --- |
| B5 | 5 to 15 |
| B6 | 5 to 15 |
| B7 | 5 to 15 |
| B8 | 5 to 15 |
| B9 | 5 to 15 |
| B10 | 5 to 15 |
| B11 | 5 to 15 |

Each binder was assayed against HLA-A*1101 (human) in the same assay as above. Details: remark: other sources report otherwise.

| Binder | IC50 [µM] |
| --- | --- |
| B6 | 5 to 15 |
| B12 | 5 to 15 |
| B13 | 5 to 15 |

From patent US20150010586A1
